This assay has as its target hMutSα (hMSH2-hMSH6), wild type (human, UniProt P43246 1-934; P52701 1-1360). Nature of the assay: pull-down.

Take ARKSAPATGGVKKPHRYRP (dimethyl-lysine at K36; biotin (position not given)) [biotin-labeled histone H3 peptide with di-methylated K36]: the binding result is reported as “binds”.

Values taken from publication PMC3641580 (Cell, 2013).
